Laboratory results from PMC4446944, “The maize cytochrome P450 CYP79A61 produces phenylacetaldoxime and indole-3-acetaldoxime in heterologous systems and might contribute to plant defense and auxin formation” (BMC Plant Biology, 2015).

Legend:
[1] = substrate: N[C@@H](Cc1ccccc1)C(=O)O; assay: yeast microsomes, LC-MS/MS of (E/Z)-phenylacetaldoxime formed; format: biochemical, Zea mays; settings: 1 mM NADPH, 75 mM sodium phosphate pH 7.0, 25 °C, 30 min, microsomes with Arabidopsis CPR1
[2] = substrate: N[C@@H](Cc1c[nH]c2ccccc12)C(=O)O; assay: yeast microsomes, LC-MS/MS of (E/Z)-indole-3-acetaldoxime formed; format: biochemical, Zea mays; settings: 1 mM NADPH, 75 mM sodium phosphate pH 7.0, 25 °C, 30 min, microsomes with Arabidopsis CPR1

B1: CYP79A61 (Zea mays subsp. mays) (protein)
chain: MVSSPQANKFPLRKQISSPSSSCMAPHVLLVLVILLYLVRTLRPWRSRRNSTCCTPSLPPGPVPWPVVGNLPEMMLSDKPAFHWIHHIMKEAGTDIACIKLGGVHVIPISCPKIALEVLSNQDANFASRPLTFASKTFSTGYRDAAMSHCGDHWKKMRRVLASEIVCPSRHRWLHDKRADEADNLTRYVYNLATKAGSSGAVDVRHIARHYCGNVVRRLMFNTRYFGKPQPDSGPGPLEVQHVDAVFTSLGLLYSFCVSDYLPWLLGLDLDGHEKMVKEANERVTRLHDAVIDERWRLWKSGERRELEDFLDVLIMLKDAEAGRPVLSIEEVKALLMDITFASMDNPSNAVEWALAEMVNNPTMLKKAVDEIDSVVGQERLVQEHDIPRLNYTKACIREAFRLHPVAPFNVPHVAVADATVAGYRIPKGSHVILSRTGLGRNPDVWDDPLRFDPERHIPLSPEMEVSLVERDLRFISFSTGRRGCIAAALGTDMTIMLFGRLLQGFSWSKMTGVAAIDLSESRHNTFMARPLVLQAKPRLPAHLYPGILLCK
notes: complete open reading frame, untagged as far as told, pESC-Leu2d, Saccharomyces cerevisiae WAT11 microsomes with Arabidopsis CPR1
- Km [1]: 117.2 ± 6.0 µM
- Km [2]: 150.2 ± 9.2 µM
